Laboratory results from US7317091.

Columns and labels:
[1] = target: human V158 FcγRIIIa extracellular region fused with glutathione S-transferase (GST) (human) (UniProt P08637); test: AlphaScreen competition
[2] = target: FcγRIIIa on human PBMC effector cells (human) (UniProt P08637); test: cell-based or functional assay
[3] = target: human FcγRIIb extracellular region, GST-tagged (human) (UniProt P31994); test: AlphaScreen competition
Chain of human FcγRIIb extracellular region, GST-tagged (human) (P31994 43-217): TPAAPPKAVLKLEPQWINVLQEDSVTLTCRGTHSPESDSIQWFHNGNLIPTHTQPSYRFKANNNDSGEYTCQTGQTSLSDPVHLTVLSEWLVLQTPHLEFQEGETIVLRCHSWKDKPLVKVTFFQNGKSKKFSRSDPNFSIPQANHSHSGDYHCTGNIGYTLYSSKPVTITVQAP

Chain of human V158 FcγRIIIa extracellular region fused with glutathione S-transferase (GST) (human) (P08637 17-208 F176V): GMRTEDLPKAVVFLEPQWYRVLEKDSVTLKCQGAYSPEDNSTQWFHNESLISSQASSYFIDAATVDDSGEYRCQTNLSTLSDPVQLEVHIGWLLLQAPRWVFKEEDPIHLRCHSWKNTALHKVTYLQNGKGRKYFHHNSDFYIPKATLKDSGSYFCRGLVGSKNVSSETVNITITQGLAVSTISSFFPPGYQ

Substance | FcγRIIIa Fold [1] [fold vs WT] | further results
E233D trastuzumab (antibody) | 0.85 | –
E272Y trastuzumab (antibody) | 8.7 | –
E318R trastuzumab (antibody) | 1.06 | –
F275W trastuzumab (antibody) | 1.11 | –
K274L trastuzumab (antibody) | 1.09 | –
K274T trastuzumab (antibody) | 1.41 | –
K274Y trastuzumab (antibody) | 1.06 | –
N276R trastuzumab (antibody) | 0.66 | –
N276S trastuzumab (antibody) | 0.41 | –
S239D/A330Y/I332E/K326E trastuzumab (antibody) | 64.1 | –
S239D/A330Y/I332E/L235D trastuzumab (antibody) | 7.04 | –
S239D/A330Y/I332E/V264T trastuzumab (antibody) | 17.7 | –
S239D/I332E trastuzumab (antibody) | – | FcγRIIb Fold [3]: 19.7 fold vs WT
S239D/I332E/A330I trastuzumab (antibody) | 59.1 | –
S239N/A330L/I332E trastuzumab (antibody) | 12.9 | –
S239N/A330Y/I332E trastuzumab (antibody) | 14.2 | –
S239N/S298A/I332E trastuzumab (antibody) | 32.1 | FcγRIIb Fold [3]: 5.15 fold vs WT
S324R trastuzumab (antibody) | 0.71 | –
S324Y trastuzumab (antibody) | 0.98 | –
T335D trastuzumab (antibody) | 2.79 | –
T335R trastuzumab (antibody) | 2.58 | –
V240I/V266I trastuzumab (antibody) | 1.72 | –
V264I/I332E alemtuzumab (antibody) | – | ADCC EC50, DoHH-2 targets, V158/F158 PBMCs [2]: 4 ng/mL; ADCC log(EC50), DoHH-2 targets, V158/F158 PBMCs [2]: 0.6 log(ng/ml)
V273I trastuzumab (antibody) | 0.79 | –
V302I trastuzumab (antibody) | 1.01 | –
V323I trastuzumab (antibody) | 0.83 | –
Y278T trastuzumab (antibody) | 1.87 | –
Y278W trastuzumab (antibody) | 0.41 | –

Continued, in another order:

FcγRIIIa Fold [1] [fold vs WT] | Substance | further results
0.67 | E283R trastuzumab (antibody) | –
0.75 | E333H trastuzumab (antibody) | –
0.78 | E333T trastuzumab (antibody) | –
6.11 | K274E trastuzumab (antibody) | –
1.41 | K274R trastuzumab (antibody) | –
1.43 | K326I trastuzumab (antibody) | –
1.88 | K326T trastuzumab (antibody) | –
0.87 | N276E trastuzumab (antibody) | –
0.56 | N276Y trastuzumab (antibody) | –
1.09 | P230A trastuzumab (antibody) | –
0.92 | P230A/E233D trastuzumab (antibody) | –
1.87 | P230A/E233D/I332E trastuzumab (antibody) | –
22.4 | S239D/A330Y/I332E/L234I trastuzumab (antibody) | –
28 | S239D/A330Y/I332E/V240I trastuzumab (antibody) | –
56.1 | S239D/I332E alemtuzumab (antibody) | ADCC EC50, DoHH-2 targets, V158/F158 PBMCs [2]: 3 ng/mL; ADCC Fold Improvement Over WT [2]: 3.3 fold; ADCC log(EC50), DoHH-2 targets, V158/F158 PBMCs [2]: 0.49 log(ng/ml)
36.6 | S239D/V264I/I332E trastuzumab (antibody) | FcγRIIb Fold [3]: 14.4 fold vs WT
1.17 | S324V trastuzumab (antibody) | –
1.56 | T335Y trastuzumab (antibody) | –
16.5 | V264I/S298A/I332E trastuzumab (antibody) | –
0.9 | Y278E trastuzumab (antibody) | –
